One assay addresses human fibrinogen (human) (UniProt P02671). Nature of the assay: SPR; BIAcore 3000, CM5 chip; human prothrombin and human fibrinogen amine-linked, Coa or vWbp injected in HBS-P (20 mM HEPES pH 7.4, 150 mM NaCl, 0.005% P20), flow 2 uL/min; 1:1 binding model with drifting baseline and local Rmax (the legend of Figure S5 tells the opposite orientation). Background: SPR reads the build-up and loss of mass on a sensor chip optically.

Assay [1] has as its target human prothrombin (human). The assay is described as above.

Chain of UniProt P02671 (P02671 36-866, chain 1 of 3): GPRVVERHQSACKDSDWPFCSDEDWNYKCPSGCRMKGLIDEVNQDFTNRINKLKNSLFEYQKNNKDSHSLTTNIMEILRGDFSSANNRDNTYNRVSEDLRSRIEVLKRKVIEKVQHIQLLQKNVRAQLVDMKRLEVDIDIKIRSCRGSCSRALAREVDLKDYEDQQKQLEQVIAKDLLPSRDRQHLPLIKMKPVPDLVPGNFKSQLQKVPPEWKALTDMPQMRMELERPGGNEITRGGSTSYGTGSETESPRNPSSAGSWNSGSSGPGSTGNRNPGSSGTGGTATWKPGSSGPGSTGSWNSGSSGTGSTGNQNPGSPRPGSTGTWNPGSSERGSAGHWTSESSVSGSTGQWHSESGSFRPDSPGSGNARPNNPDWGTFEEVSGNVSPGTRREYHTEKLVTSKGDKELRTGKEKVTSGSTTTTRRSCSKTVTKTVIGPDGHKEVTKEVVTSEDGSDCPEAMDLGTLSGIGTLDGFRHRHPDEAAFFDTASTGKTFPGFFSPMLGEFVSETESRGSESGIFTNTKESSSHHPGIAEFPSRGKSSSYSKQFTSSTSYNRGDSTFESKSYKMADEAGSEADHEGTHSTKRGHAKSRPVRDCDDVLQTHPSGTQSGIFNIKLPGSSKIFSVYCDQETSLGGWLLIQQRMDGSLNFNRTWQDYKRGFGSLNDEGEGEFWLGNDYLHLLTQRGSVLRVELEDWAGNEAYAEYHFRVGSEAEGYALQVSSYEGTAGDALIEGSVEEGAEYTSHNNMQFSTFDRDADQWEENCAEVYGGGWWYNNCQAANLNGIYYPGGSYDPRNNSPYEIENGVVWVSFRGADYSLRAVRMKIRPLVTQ
Chain of UniProt P02671 (P02675 45-491, chain 2 of 3, further chain): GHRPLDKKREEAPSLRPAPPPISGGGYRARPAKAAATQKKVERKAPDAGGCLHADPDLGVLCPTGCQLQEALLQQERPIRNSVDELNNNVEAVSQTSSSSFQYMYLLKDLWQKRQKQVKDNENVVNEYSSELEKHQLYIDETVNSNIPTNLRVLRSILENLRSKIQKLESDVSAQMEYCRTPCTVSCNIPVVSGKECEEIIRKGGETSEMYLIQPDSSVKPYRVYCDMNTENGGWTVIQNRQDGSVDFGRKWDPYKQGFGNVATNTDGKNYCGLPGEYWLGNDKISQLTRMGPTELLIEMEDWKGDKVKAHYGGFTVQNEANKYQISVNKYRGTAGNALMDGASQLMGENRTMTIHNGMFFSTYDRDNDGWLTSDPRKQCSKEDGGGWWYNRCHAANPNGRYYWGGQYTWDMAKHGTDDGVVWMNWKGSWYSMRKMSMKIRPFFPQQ
Chain of UniProt P02671 (P02679 27-453, chain 3 of 3, further chain): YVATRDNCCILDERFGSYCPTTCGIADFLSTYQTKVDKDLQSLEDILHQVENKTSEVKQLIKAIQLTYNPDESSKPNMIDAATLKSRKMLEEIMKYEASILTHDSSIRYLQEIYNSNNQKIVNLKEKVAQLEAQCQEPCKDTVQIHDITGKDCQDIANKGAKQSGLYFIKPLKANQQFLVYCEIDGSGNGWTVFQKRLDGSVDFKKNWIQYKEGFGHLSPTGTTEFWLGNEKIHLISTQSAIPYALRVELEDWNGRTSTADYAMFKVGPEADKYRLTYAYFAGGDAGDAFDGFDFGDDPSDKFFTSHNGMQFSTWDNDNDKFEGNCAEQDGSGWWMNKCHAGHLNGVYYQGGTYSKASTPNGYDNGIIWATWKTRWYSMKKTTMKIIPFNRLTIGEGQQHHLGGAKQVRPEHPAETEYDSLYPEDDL

In the case of “S. aureus Newman Coagulase (natural protein)”, the Kd was determined as 33 nM with human fibrinogen (human) and 5 nM in assay [1].
“S. aureus Newman von Willebrand factor binding protein (natural protein)”: the equilibrium dissociation constant (Kd) in the assay with human fibrinogen (human) is 271 nM; in assay [1], 98 nM.

In general, Kd refers to the equilibrium constant for the complex coming apart. Lower therefore signals higher affinity.

The values are drawn from paper PMC2916881.
